Biological target: estrogen receptor α (as used in the TR-FRET assay) (UniProt P03372)
Assay: FRET or BRET

Chain of estrogen receptor α (as used in the TR-FRET assay) (P03372 311-547): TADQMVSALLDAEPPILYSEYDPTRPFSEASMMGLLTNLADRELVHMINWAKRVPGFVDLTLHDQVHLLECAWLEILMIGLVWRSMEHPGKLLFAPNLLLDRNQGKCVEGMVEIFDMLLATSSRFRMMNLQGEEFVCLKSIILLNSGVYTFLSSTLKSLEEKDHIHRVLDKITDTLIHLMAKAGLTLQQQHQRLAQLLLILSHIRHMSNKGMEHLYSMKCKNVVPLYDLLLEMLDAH

**Q.** SRC2-WT (peptide) was tested. Which IC50 did it give?
**A.** Its IC50 is 1100 nM.

Reference: article PMC5993042
